In PMC9519379 (Cell Reports Medicine, 2022):

Molecular target: SARS-CoV-2 Spike Trimer (B.1.617.2/Delta) (SARS-CoV-2) (UniProt P0DTC2)
Assay: single-molecule force spectroscopy

**Q.** “H84T-banana lectin (H84T-BanLec) (from UniProt Q8L5H4 1-141) (designed binder)” was tested. Which IC50 did it give?
**A.** Its IC50 is 3.9 nM.
